Measured values from PMC3813429, “New Insight to Structure-Function Relationship of GalNAc Mediated Primary Interaction between Insecticidal Cry1Ac Toxin and HaALP Receptor of Helicoverpa armigera” (PLoS ONE, 2013).

Biological target: Cry1Ac WT toxin (Bacillus thuringiensis)
Assay: SPR
Conditions: both partners purified

B1: HaALP, membrane bound alkaline phosphatase of Helicoverpa armigera (receptor)
chain: HWLHPAAPAAASRAETSANYWAQDAQAAINARLERVESVKKAHNVIMFLGDGMSVPTLAAARTLLGQRQGKTGEETKLHFETFPTIGLVKTYCVDAQIADSACTATAYLCGVKNNYGAIGVDGTVRRGDCQAASNTATHVESIAEWALADGRDVGIVTTTRITHASPAGTFAKTANRTWENDGEVSQMGLDAKDCPDIAHQLVHHHPGNKFKVIFGGGRRAFLPNTVQDDEGSYGRRIDNRDLIQEWKNDKDSRNVSHQYLWQREQLMNLNDDLPEYMLGLFESSHMEYHLKSDPQTEPTLAELTEVAIRSLRRNEKGFFLFVEGGRIDHAHHDNLVELALDETLEMDKAVATATKMLSEDDSLIVVTADHAHVMTINGYSGRGNDILGPSRDVGRDRMPYMTLSYTNGPGFRPHVNDIRQNVTAEPNYRTLDWESHVDVPLVDETHGGDDVAVFARGPHHSMFTGLYEQSQLPHLMAYAACIGPGRHACASAAHLPSAHFFVALPALFISILLR
modifications: glycan with α-GalNAc at the non-reducing terminal (site not stated)
B1 gave a Kd of 7.68 nM, a koff of 0.00129 s⁻¹ and a kon of 168000 M⁻¹ s⁻¹.
